{
  "source": "patent US20170066831A1",
  "about": "(Janssen / Centocor, published 2017)",
  "binders": {"B1": {"name": "STLM208 (antibody, V domains shown)", "VH": "EVQLLESGGGLVQPGGSLRLSCAASGFTFSIYDMIWVRQAPGKGLEWVSSIRGEGGGTYYADSVKGRFTISRDNSKNTLYLQMNSLRAEDTAVYYCARDPWSTEGSFFVLDYWGQGTLVTVSS", "VL": "EIVLTQSPATLSLSPGERATLSCRASQSVDDDLAWYQQKPGQAPRLLIYDASNRATGIPARFSGSGSGTDFTLTISSLEPEDFAVYYCQQYITAPLTFGQGTKVEIK", "notes": "frameworks VH3-23 / Vk-L6"}},
  "key": {"[1]": {"biological_target": "T1, HH-ST2L variant 93NL94 (substitution 93TF94 to 93NL94) (human, UniProt Q01638 19-205)", "T1 chain": "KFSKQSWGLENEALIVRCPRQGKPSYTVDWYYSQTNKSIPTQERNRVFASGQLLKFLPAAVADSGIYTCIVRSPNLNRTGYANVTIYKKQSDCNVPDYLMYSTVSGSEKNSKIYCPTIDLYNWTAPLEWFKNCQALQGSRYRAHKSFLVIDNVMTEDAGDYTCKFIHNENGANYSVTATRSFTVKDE", "assay": "ProteOn SPR, mAb captured by anti-Fc, ST2L-D1D2 variant injected", "procedure": "(§1) Binding studies were performed using the ProteOn XPR36 Protein Interaction Array system (Bio-Rad) (Bravman T, et al. Anal Biochem 358:281-288, 2006). […] Individual anti-ST2L mAb was then captured by flowing (1 μg/mL) antibody solution prepared in PBS containing 0.5% Nonidet P-40 and 0.5% Na-deoxycholate). The signal in the surfaces reached ˜250 resonance units (RU, 1 RU=1 pg protein/mm²) in the anti-Fc-coated surfaces, confirming that these antibodies specifically capture anti-ST2L mAbs. After 90° rotation of the fluid system, wild type of ST2L-D1D2 or variant proteins (0.5 mg/mL in PBS containing 0.5% Nonidet P-40 and 0.5% Na-deoxycholate) was injected in the parallel flow channels. All of these assays were performed at 25° C. The ST2L-D1D2-dependent signals on the surfaces were obtained by double referencing, subtracting the response observed on surfaces immobilizing the antibodies alone, and the signal observed injecting the vehicle alone (which allows correction for binding-independent responses). The resulting sensorgrams were fitted by the simplest 1:1 interaction model (ProteOn analysis software), to obtain the corresponding association and dissociation rate constants (kₐ and kd).\nResidue numbering is according to full length human ST2L of SEQ ID NO: 1."}, "K55E": {"biological_target": "T2, K55E", "T2 construct": "also called HH-ST2L (ST2L-D1D2) variant K55E", "T2 receptor fragment (Domains I and II)": "T1 chain with K37E, N75T, L76F", "assay": "SPR, ProteOn XPR36, 25 C; mAb captured on anti-Fc surface, ST2L-D1D2 (HH-ST2L) variant injected; 1:1 model", "procedure": "as §1"}, "E61K": {"biological_target": "T3, E61K", "T3 construct": "also called HH-ST2L (ST2L-D1D2) variant E61K", "T3 receptor fragment (Domains I and II)": "T1 chain with E43K, N75T, L76F", "assay": "SPR, ProteOn XPR36, 25 C; mAb captured on anti-Fc surface, ST2L-D1D2 (HH-ST2L) variant injected; 1:1 model", "procedure": "as §1"}},
  "note": "Changes are numbered by the printed parent chain.",
  "data": [
    {"binder": "B1", "values": [
      {"measurement": "Kd", "setting": "[1]", "value": "~0.0495", "unit": "nM"},
      {"measurement": "fold reduction of binding affinity against wild type ST2L-D1D2", "setting": "[1]", "value": "~5", "unit": "fold"},
      {"measurement": "Kd", "setting": "K55E", "value": 0.01, "unit": "nM"},
      {"measurement": "koff", "setting": "K55E", "value": 0.000129, "unit": "s⁻¹"},
      {"measurement": "kon", "setting": "K55E", "value": "1.26e+07", "unit": "M⁻¹ s⁻¹"},
      {"measurement": "Kd", "setting": "E61K", "value": 0.0081, "unit": "nM"},
      {"measurement": "koff", "setting": "E61K", "value": 0.000126, "unit": "s⁻¹"},
      {"measurement": "kon", "setting": "E61K", "value": "1.55e+07", "unit": "M⁻¹ s⁻¹"}
    ]}
  ]
}
